Consider three molecules from patent US20190352376A1 (NATIONAL RESEARCH COUNCIL OF CANADA, published 2019).

Test [1] has as its target hemagglutinin of B/Massachusetts/2/2012 (influenza virus B/Massachusetts/2/2012). Description: dot blot, 4M urea; inactivated virus (egg/NIBSC), dot 14.
For test [2], the target named is T1, hemagglutinin of H3N2 A/Hong Kong/8/1968 (influenza virus H3N2 A/Hong Kong/8/1968). Description: dot blot, 4M urea; virus (HEK293/NRC), dot 19.
In test [3] the target is hemagglutinin of H3N2 A/Wisconsin/67/2005 (influenza virus H3N2 A/Wisconsin/67/2005). Description: dot blot, 4M urea; rHA (Prot. Sc.), dot 4.
In test [4] the target is T1, hemagglutinin of H3N2 A/Hong Kong/8/1968. Description: dot blot, 4M urea; rHA (Imm. Techn.), dot 5.
The target of test [5] is T2, hemagglutinin of H3N2 A/Brisbane/10/2007 (influenza virus H3N2 A/Brisbane/10/2007).
T2 construct: rHA (BEI Resources)
The test can be described thus: dot blot, 4M urea; rHA (BEI Res.), dot 6.

Test [6] has as its target hemagglutinin of H4N6 A/Duck/Czechoslovakia/56 (influenza virus H4N6 …, UniProt P19696 17-564). Description: Western blot; virus, eggs. Background: In western blotting, separated proteins are transferred to a membrane and probed.
Test [7] deals with hemagglutinin of H7N3/A/Turkey/Oregon/71 (influenza virus H7N3 A/Turkey/Oregon/71, UniProt P03458 19-560). Description: Western blot; virus, eggs.
Test [8] has as its target hemagglutinin of B/Brisbane/60/2008 (influenza virus B/Brisbane/60/2008). The test can be described thus: dot blot, 4M urea; rHA (Prot. Sc.), dot 11.
The target in test [9] is T3, hemagglutinin of H1N1 A/Puerto Rico/8/1934 (influenza virus H1N1 A/Puerto …, UniProt P03452 18-528). Description: dot blot, 4M urea; rHA (Prot. Sc.), dot 1.
Test [10] deals with T4, hemagglutinin of H1N1 A/California/06/2008 (influenza virus H1N1 …). The test can be described thus: dot blot, 4M urea; inactivated virus (egg/NIBSC), dot 12.
The target in test [11] is hemagglutinin of H3N2 A/Texas/50/2012 (influenza virus H3N2 A/Texas/50/2012). The test can be described thus: dot blot, 4M urea; inactivated virus (egg/NIBSC), dot 13.
The target of test [12] is T3, hemagglutinin of H1N1 A/Puerto …. The test can be described thus: dot blot, 4M urea; virus (HEK293/NRC), dot 17.
Test [13] deals with T4, hemagglutinin of H1N1 …. The test can be described thus: dot blot, 4M urea; rHA (Imm. Techn.), dot 2.
The target of test [14] is hemagglutinin of H12N5 A/Duck/Alberta/60/76 (influenza virus H12N5 …, UniProt P03446 17-564). The test can be described thus: Western blot; virus, MDCK cells.
The target of test [15] is hemagglutinin of H13N6 A/Gull/Maryland/704/77 (influenza virus H13N6 …, UniProt P13103 19-566). The test can be described thus: Western blot; virus, eggs.
For test [16], the target named is hemagglutinin of H9N2 A/Turkey/Wisconsin/1/66 (influenza virus H9N2 …, UniProt P03457 19-560). Description: Western blot; virus, eggs.
In test [17] the target is hemagglutinin of H8N4 A/Turkey/Ontario/6118/68 (influenza virus H8N4 …, UniProt P03456 16-565). Description: Western blot; virus, eggs.
Test [18] has as its target hemagglutinin of H2N2 A/Singapore/1/57 (influenza virus H2N2 A/Singapore/1/57, UniProt Q67333 16-562). Description: Western blot; virus, eggs.

B1: F211-11H12 (antibody, V domains shown)
VH: DVQLQESGPGLVKPSQSLSLTCSVTGYSITSDYYWNWIRQFPGNKLEWMAYIGYDGTKNYNPSLKNRISITRDTSKNQFFLKLNSVTTDDTATYYCTRDRANWDDYFDYWGQGTTLTVSS
VL: DIVMSQSPSSLAVSVGEKVTMSCKSSQSLLNSRNQKNHLAWYQQKPGQSPKLLIYWASTRESGVPDRFTGDGSGTDFTLTISSVKAEDLAVYYCQQYYTYRTFGGGTKLEIK
As to B1, the signal intensity is 9930 arbitrary fluorescent units in test [1]; 201 arbitrary fluorescent units in test [2]; 176 arbitrary fluorescent units in test [3]; 464 arbitrary fluorescent units in [4]; 280 arbitrary fluorescent units in test [5]; 38500 arbitrary fluorescent units in test [8]. The signal intensity in test [9] is 20300 arbitrary fluorescent units; in test [10] it was 14400 arbitrary fluorescent units; in test [11], 201 arbitrary fluorescent units; in test [12], 6540 arbitrary fluorescent units; in [13] it was 5120 arbitrary fluorescent units. In addition, the binding result in [6] and in [7] was “no binding (tested: 2µg/ml)” throughout.

B2: F211-9D1 (antibody, V domains shown)
VH: DVQLQESGPGLVKPSQSLSLTCSVTGYSITSDYYWNWIRQFPGNKLEWMAYIGYDGSKNYNPSLKNRISITRDTSKNQFFLKLNSVTTDDTATYYCTRDRANWDDYFDYWGQGTTLTVSS
VL: DIVMSQSPSSLAVSVGEKVTMSCKSSQSLLNSRNQKNHLAWYQQKPGQSPKLLIYWASTRESGVPDRFSGDGSGTDFTLTISSVKAEDLAVYYCQQYYTYRTFGGGTKLEIK
For B2, the signal intensity is 10500 arbitrary fluorescent units in [1]; 108 arbitrary fluorescent units in test [2]; 70 arbitrary fluorescent units in test [3]; 651 arbitrary fluorescent units in test [4]; 362 arbitrary fluorescent units in test [5]; 41100 arbitrary fluorescent units in test [8]. The signal intensity in test [9] is 21400 arbitrary fluorescent units; in test [10], 17400 arbitrary fluorescent units; in test [11] it was 238 arbitrary fluorescent units; in test [12], 7810 arbitrary fluorescent units; in test [13], 5780 arbitrary fluorescent units.

B3: F211-10A9 (antibody, V domains shown)
VH: QIQLQQSGPELVKPGAPVKISCKASGYTFTDYYIHWVNQRPGQGLEWIGYIYPGNGHTVYNQKFKVRATLTADNPSSTAYLQLNSLTSEDSGVYFCAYDLFNYWGQGTLVTVSA
VL: DIVMTQSPSSLAMSVGQKVTMSCKSSQSLLNSDTQKNFLAWYQQKPGQSPKILVYFASTKESGVPDRFIGSGSGTDFTLTITSVQAEDLADYFCQQYYSIPLTFGAGTKLELK
Turning to B3, the signal intensity in test [1] was 240 arbitrary fluorescent units; in test [2], 319 arbitrary fluorescent units; in [3], 791 arbitrary fluorescent units; in test [4], 5670 arbitrary fluorescent units; in test [5], 11500 arbitrary fluorescent units; in [8], 25800 arbitrary fluorescent units. Further, the signal intensity in test [9] is 2520 arbitrary fluorescent units; in [10] it was 227 arbitrary fluorescent units; in test [11] it was 412 arbitrary fluorescent units; in test [12], 7450 arbitrary fluorescent units; in test [13] it was 2780 arbitrary fluorescent units. Moreover, the binding result in test [14], in test [15], in [6], in [7], in test [16] and in [17] was “binds” throughout. The binding result in test [18] is given as “binds”.
